# Measurements: PMC9482650, “Quantitative fragmentomics allow affinity mapping of interactomes” (Nature Communications, 2022)
# T1: MPP7, Q5T2T1
# T1 sequence (Q5T2T1 134-230, limits assumed, looked up): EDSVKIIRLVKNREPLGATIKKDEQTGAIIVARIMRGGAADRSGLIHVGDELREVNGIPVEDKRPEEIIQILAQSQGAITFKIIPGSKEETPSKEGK
# T2: SYNJ2BP, P57105
# T2 sequence (P57105 8-110, limits assumed, looked up): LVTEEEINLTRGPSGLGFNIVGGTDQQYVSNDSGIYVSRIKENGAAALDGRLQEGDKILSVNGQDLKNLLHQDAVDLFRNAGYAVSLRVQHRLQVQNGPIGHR
# T3: GRIP1_2, Q9Y3R0
# T3 sequence (Q9Y3R0 145-248, limits assumed, looked up): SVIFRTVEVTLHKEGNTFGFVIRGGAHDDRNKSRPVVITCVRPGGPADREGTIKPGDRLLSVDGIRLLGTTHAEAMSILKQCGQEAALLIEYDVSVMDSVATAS
# T4: LIN7C, Q9NUP9
# T4 sequence (Q9NUP9 88-185, limits assumed, looked up): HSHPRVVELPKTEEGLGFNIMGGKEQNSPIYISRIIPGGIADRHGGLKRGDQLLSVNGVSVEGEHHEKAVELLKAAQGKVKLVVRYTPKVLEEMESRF
# T5: GRIP1_5, Q9Y3R0
# T5 sequence (Q9Y3R0 568-668, limits assumed, looked up): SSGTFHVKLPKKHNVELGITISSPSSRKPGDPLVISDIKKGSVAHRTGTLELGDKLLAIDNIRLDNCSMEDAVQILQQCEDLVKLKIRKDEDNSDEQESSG
# T6: GRIP1_3, Q9Y3R0
# T6 sequence (Q9Y3R0 247-346, limits assumed, looked up): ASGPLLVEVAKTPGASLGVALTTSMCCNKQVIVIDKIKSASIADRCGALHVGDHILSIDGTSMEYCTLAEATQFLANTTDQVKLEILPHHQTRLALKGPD
# T7: CARD11, Q9BXL7
# T7 sequence (Q9BXL7 662-765, limits assumed, looked up): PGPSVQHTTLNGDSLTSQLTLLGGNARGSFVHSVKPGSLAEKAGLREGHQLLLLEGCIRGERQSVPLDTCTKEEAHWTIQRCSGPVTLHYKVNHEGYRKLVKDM
# T8: APBA1_2, Q02410
# T8 sequence (Q02410 742-832, limits assumed, looked up): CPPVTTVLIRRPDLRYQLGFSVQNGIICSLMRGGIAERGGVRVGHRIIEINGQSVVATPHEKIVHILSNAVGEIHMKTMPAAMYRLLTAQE
# T9: DFNB31_3, Q9P202
# T9 sequence (Q9P202 811-907, limits assumed, looked up): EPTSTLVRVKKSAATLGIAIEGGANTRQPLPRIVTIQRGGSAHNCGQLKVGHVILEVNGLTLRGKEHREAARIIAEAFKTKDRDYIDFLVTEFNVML
# T10: TJP3_3, O95049
# T10 sequence (O95049 375-456, limits assumed, looked up): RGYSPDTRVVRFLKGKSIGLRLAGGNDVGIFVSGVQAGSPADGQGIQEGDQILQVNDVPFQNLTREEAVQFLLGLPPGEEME
# Target: SNX27, Q96L92
# Assay: holdup assay
# Parameters: key: below the threshold = too weak to quantify, mostly under pKd 3.1 to 4
# Conditions: plain residues with an end cap or a label only (N-terminal biotin on a linker: ado-ado)
row,Binder,pKd
1,"NHSSSPETTA [TRMT13, Q9NUP7]",below the threshold
2,"PAPSSGKDYV [CLDN1, O95832]",3.62

# Target: T1, MPP7, Q5T2T1
# Assay: holdup assay
# Parameters: key: below the threshold = too weak to quantify, mostly under pKd 3.1 to 4
# Conditions: plain residues with an end cap or a label only (N-terminal biotin on a linker: ado-ado)
row,Binder,pKd
1,"NHSSSPETTA [TRMT13, Q9NUP7]",below the threshold
2,"PAPSSGKDYV [CLDN1, O95832]",below the threshold

# Target: T2, SYNJ2BP, P57105
# Assay: holdup assay
# Parameters: key: below the threshold = too weak to quantify, mostly under pKd 3.1 to 4
# Conditions: plain residues with an end cap or a label only (N-terminal biotin on a linker: ado-ado)
row,Binder,pKd
1,"NHSSSPETTA [TRMT13, Q9NUP7]",below the threshold
2,"PAPSSGKDYV [CLDN1, O95832]",below the threshold

# Target: SCRIB_2, Q14160
# Sequence (Q14160 857-960): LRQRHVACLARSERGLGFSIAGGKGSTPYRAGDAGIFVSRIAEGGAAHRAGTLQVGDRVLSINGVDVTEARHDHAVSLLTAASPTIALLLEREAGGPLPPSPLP
# Assay: holdup assay
# Parameters: key: below the threshold = too weak to quantify, mostly under pKd 3.1 to 4
# Conditions: plain residues with an end cap or a label only (N-terminal biotin on a linker: ado-ado)
row,Binder,pKd
1,"NHSSSPETTA [TRMT13, Q9NUP7]",below the threshold
2,"PAPSSGKDYV [CLDN1, O95832]",below the threshold

# Target: T3, GRIP1_2, Q9Y3R0
# Assay: holdup assay
# Parameters: key: below the threshold = too weak to quantify, mostly under pKd 3.1 to 4
# Conditions: plain residues with an end cap or a label only (N-terminal biotin on a linker: ado-ado)
row,Binder,pKd
1,"NHSSSPETTA [TRMT13, Q9NUP7]",below the threshold
2,"PAPSSGKDYV [CLDN1, O95832]",below the threshold

# Target: T4, LIN7C, Q9NUP9
# Assay: holdup assay
# Parameters: key: below the threshold = too weak to quantify, mostly under pKd 3.1 to 4
# Conditions: plain residues with an end cap or a label only (N-terminal biotin on a linker: ado-ado)
row,Binder,pKd
1,"NHSSSPETTA [TRMT13, Q9NUP7]",below the threshold
2,"PAPSSGKDYV [CLDN1, O95832]",below the threshold

# Target: LAP2, Q96RT1
# Sequence (Q96RT1 other isoform, or with tags, fused parts or gaps): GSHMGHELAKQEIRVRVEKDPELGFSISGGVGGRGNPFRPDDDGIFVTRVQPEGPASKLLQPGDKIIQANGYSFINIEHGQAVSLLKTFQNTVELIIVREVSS
# Assay: holdup assay
# Parameters: key: below the threshold = too weak to quantify, mostly under pKd 3.1 to 4
# Conditions: plain residues with an end cap or a label only (N-terminal biotin on a linker: ado-ado)
row,Binder,pKd
1,"NHSSSPETTA [TRMT13, Q9NUP7]",below the threshold
2,"PAPSSGKDYV [CLDN1, O95832]",below the threshold

# Target: DLG4_3, P78352
# Sequence (P78352 306-403): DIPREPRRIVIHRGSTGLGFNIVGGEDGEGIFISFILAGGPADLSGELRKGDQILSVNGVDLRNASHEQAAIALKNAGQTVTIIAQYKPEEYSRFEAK
# Assay: holdup assay
# Parameters: key: below the threshold = too weak to quantify, mostly under pKd 3.1 to 4
# Conditions: plain residues with an end cap or a label only (N-terminal biotin on a linker: ado-ado)
row,Binder,pKd
1,"NHSSSPETTA [TRMT13, Q9NUP7]",below the threshold
2,"PAPSSGKDYV [CLDN1, O95832]",below the threshold

# Target: T5, GRIP1_5, Q9Y3R0
# Assay: holdup assay
# Parameters: key: below the threshold = too weak to quantify, mostly under pKd 3.1 to 4
# Conditions: plain residues with an end cap or a label only (N-terminal biotin on a linker: ado-ado)
row,Binder,pKd
1,"NHSSSPETTA [TRMT13, Q9NUP7]",below the threshold
2,"PAPSSGKDYV [CLDN1, O95832]",below the threshold

# Target: GRID2IP_1, A4D2P6
# Sequence (A4D2P6 1-87): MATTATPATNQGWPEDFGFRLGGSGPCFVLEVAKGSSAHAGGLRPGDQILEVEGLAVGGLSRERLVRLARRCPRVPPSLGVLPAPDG
# Assay: holdup assay
# Parameters: key: below the threshold = too weak to quantify, mostly under pKd 3.1 to 4
# Conditions: plain residues with an end cap or a label only (N-terminal biotin on a linker: ado-ado)
row,Binder,pKd
1,"NHSSSPETTA [TRMT13, Q9NUP7]",below the threshold
2,"PAPSSGKDYV [CLDN1, O95832]",below the threshold

# Target: MAGI2_4, Q86UL8
# Sequence (Q86UL8 772-865): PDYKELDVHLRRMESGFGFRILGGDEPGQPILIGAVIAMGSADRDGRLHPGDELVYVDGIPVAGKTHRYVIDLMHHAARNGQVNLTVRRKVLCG
# Assay: holdup assay
# Parameters: key: below the threshold = too weak to quantify, mostly under pKd 3.1 to 4
# Conditions: plain residues with an end cap or a label only (N-terminal biotin on a linker: ado-ado)
row,Binder,pKd
1,"NHSSSPETTA [TRMT13, Q9NUP7]",below the threshold
2,"PAPSSGKDYV [CLDN1, O95832]",3.54

# Target: SCRIB_1, Q14160
# Sequence (Q14160 718-814): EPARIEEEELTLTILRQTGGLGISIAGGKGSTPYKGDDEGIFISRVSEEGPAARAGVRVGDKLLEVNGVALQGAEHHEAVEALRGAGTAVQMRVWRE
# Assay: holdup assay
# Parameters: key: below the threshold = too weak to quantify, mostly under pKd 3.1 to 4
# Conditions: plain residues with an end cap or a label only (N-terminal biotin on a linker: ado-ado)
row,Binder,pKd
1,"NHSSSPETTA [TRMT13, Q9NUP7]",below the threshold
2,"PAPSSGKDYV [CLDN1, O95832]",below the threshold

# Target: AHNAK1, Q09666
# Sequence (Q09666 4-100): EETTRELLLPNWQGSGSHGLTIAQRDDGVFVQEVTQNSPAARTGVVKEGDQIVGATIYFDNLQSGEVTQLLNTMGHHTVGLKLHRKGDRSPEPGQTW
# Assay: holdup assay
# Parameters: key: below the threshold = too weak to quantify, mostly under pKd 3.1 to 4
# Conditions: plain residues with an end cap or a label only (N-terminal biotin on a linker: ado-ado)
row,Binder,pKd
1,"NHSSSPETTA [TRMT13, Q9NUP7]",below the threshold
2,"PAPSSGKDYV [CLDN1, O95832]",below the threshold

# Target: T6, GRIP1_3, Q9Y3R0
# Assay: holdup assay
# Parameters: key: below the threshold = too weak to quantify, mostly under pKd 3.1 to 4
# Conditions: plain residues with an end cap or a label only (N-terminal biotin on a linker: ado-ado)
row,Binder,pKd
1,"NHSSSPETTA [TRMT13, Q9NUP7]",below the threshold
2,"PAPSSGKDYV [CLDN1, O95832]",below the threshold

# Target: DLG1_3, Q12959
# Sequence (Q12959 457-571): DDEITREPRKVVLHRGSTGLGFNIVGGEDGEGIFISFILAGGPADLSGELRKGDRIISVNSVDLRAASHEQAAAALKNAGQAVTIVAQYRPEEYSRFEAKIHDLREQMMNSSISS
# Assay: holdup assay
# Parameters: key: below the threshold = too weak to quantify, mostly under pKd 3.1 to 4
# Conditions: plain residues with an end cap or a label only (N-terminal biotin on a linker: ado-ado)
row,Binder,pKd
1,"NHSSSPETTA [TRMT13, Q9NUP7]",below the threshold
2,"PAPSSGKDYV [CLDN1, O95832]",below the threshold

# Target: T7, CARD11, Q9BXL7
# Assay: holdup assay
# Parameters: key: below the threshold = too weak to quantify, mostly under pKd 3.1 to 4
# Conditions: plain residues with an end cap or a label only (N-terminal biotin on a linker: ado-ado)
row,Binder,pKd
1,"NHSSSPETTA [TRMT13, Q9NUP7]",below the threshold
2,"PAPSSGKDYV [CLDN1, O95832]",below the threshold

# Target: FRMPD3, Q5JV73
# Sequence (Q5JV73 12-100): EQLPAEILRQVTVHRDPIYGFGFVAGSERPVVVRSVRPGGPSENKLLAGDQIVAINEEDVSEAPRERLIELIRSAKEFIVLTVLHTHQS
# Assay: holdup assay
# Parameters: key: below the threshold = too weak to quantify, mostly under pKd 3.1 to 4
# Conditions: plain residues with an end cap or a label only (N-terminal biotin on a linker: ado-ado)
row,Binder,pKd
1,"NHSSSPETTA [TRMT13, Q9NUP7]",below the threshold
2,"PAPSSGKDYV [CLDN1, O95832]",below the threshold

# Target: T8, APBA1_2, Q02410
# Assay: holdup assay
# Parameters: key: below the threshold = too weak to quantify, mostly under pKd 3.1 to 4
# Conditions: plain residues with an end cap or a label only (N-terminal biotin on a linker: ado-ado)
row,Binder,pKd
1,"NHSSSPETTA [TRMT13, Q9NUP7]",below the threshold
2,"PAPSSGKDYV [CLDN1, O95832]",4.09

# Target: T9, DFNB31_3, Q9P202
# Assay: holdup assay
# Parameters: key: below the threshold = too weak to quantify, mostly under pKd 3.1 to 4
# Conditions: plain residues with an end cap or a label only (N-terminal biotin on a linker: ado-ado)
row,Binder,pKd
1,"NHSSSPETTA [TRMT13, Q9NUP7]",below the threshold
2,"PAPSSGKDYV [CLDN1, O95832]",below the threshold

# Target: GRIP2_7, Q9C0E4
# Sequence (Q9C0E4 934-1023): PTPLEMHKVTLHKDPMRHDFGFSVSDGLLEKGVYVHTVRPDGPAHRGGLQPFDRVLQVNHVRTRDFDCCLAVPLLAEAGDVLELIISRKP
# Assay: holdup assay
# Parameters: key: below the threshold = too weak to quantify, mostly under pKd 3.1 to 4
# Conditions: plain residues with an end cap or a label only (N-terminal biotin on a linker: ado-ado)
row,Binder,pKd
1,"NHSSSPETTA [TRMT13, Q9NUP7]",below the threshold
2,"PAPSSGKDYV [CLDN1, O95832]",3.63

# Target: TJP2_1, Q9UDY2
# Sequence (Q9UDY2 24-128): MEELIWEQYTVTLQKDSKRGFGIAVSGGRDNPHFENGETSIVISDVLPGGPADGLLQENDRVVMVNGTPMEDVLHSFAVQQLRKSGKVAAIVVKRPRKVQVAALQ
# Assay: holdup assay
# Parameters: key: below the threshold = too weak to quantify, mostly under pKd 3.1 to 4
# Conditions: plain residues with an end cap or a label only (N-terminal biotin on a linker: ado-ado)
row,Binder,pKd
1,"NHSSSPETTA [TRMT13, Q9NUP7]",below the threshold
2,"PAPSSGKDYV [CLDN1, O95832]",3.71

# Target: GRIP2_3, Q9C0E4
# Sequence (Q9C0E4 238-339): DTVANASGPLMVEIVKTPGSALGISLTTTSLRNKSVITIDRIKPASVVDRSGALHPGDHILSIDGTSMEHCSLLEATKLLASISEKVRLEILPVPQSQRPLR
# Assay: holdup assay
# Parameters: key: below the threshold = too weak to quantify, mostly under pKd 3.1 to 4
# Conditions: plain residues with an end cap or a label only (N-terminal biotin on a linker: ado-ado)
row,Binder,pKd
1,"NHSSSPETTA [TRMT13, Q9NUP7]",below the threshold
2,"PAPSSGKDYV [CLDN1, O95832]",below the threshold

# Target: PDZRN4_1, Q6ZMN7
# Sequence (Q6ZMN7 213-318): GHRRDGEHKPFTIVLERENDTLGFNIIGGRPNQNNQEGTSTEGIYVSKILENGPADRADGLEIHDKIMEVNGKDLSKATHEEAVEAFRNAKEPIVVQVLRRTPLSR
# Assay: holdup assay
# Parameters: key: below the threshold = too weak to quantify, mostly under pKd 3.1 to 4
# Conditions: plain residues with an end cap or a label only (N-terminal biotin on a linker: ado-ado)
row,Binder,pKd
1,"NHSSSPETTA [TRMT13, Q9NUP7]",below the threshold
2,"PAPSSGKDYV [CLDN1, O95832]",below the threshold

# Target: MAGI2_2, Q86UL8
# Sequence (Q86UL8 410-522): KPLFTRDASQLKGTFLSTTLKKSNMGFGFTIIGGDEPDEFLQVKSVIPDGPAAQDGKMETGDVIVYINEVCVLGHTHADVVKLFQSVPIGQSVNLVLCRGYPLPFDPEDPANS
# Assay: holdup assay
# Parameters: key: below the threshold = too weak to quantify, mostly under pKd 3.1 to 4
# Conditions: plain residues with an end cap or a label only (N-terminal biotin on a linker: ado-ado)
row,Binder,pKd
1,"NHSSSPETTA [TRMT13, Q9NUP7]",below the threshold
2,"PAPSSGKDYV [CLDN1, O95832]",below the threshold

# Target: GORASP2, Q9H8Y8
# Assay: holdup assay
# Parameters: key: below the threshold = too weak to quantify, mostly under pKd 3.1 to 4
# Conditions: plain residues with an end cap or a label only (N-terminal biotin on a linker: ado-ado)
row,Binder,pKd
1,"NHSSSPETTA [TRMT13, Q9NUP7]",below the threshold
2,"PAPSSGKDYV [CLDN1, O95832]",3.67

# Target: HTRA2, O43464
# Sequence (O43464 355-458): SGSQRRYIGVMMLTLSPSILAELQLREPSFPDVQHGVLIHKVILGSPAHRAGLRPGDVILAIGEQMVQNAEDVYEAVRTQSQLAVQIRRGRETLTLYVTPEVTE
# Assay: holdup assay
# Parameters: key: below the threshold = too weak to quantify, mostly under pKd 3.1 to 4
# Conditions: plain residues with an end cap or a label only (N-terminal biotin on a linker: ado-ado)
row,Binder,pKd
1,"NHSSSPETTA [TRMT13, Q9NUP7]",below the threshold
2,"PAPSSGKDYV [CLDN1, O95832]",below the threshold

# Target: T10, TJP3_3, O95049
# Assay: holdup assay
# Parameters: key: below the threshold = too weak to quantify, mostly under pKd 3.1 to 4
# Conditions: plain residues with an end cap or a label only (N-terminal biotin on a linker: ado-ado)
row,Binder,pKd
1,"NHSSSPETTA [TRMT13, Q9NUP7]",below the threshold
2,"PAPSSGKDYV [CLDN1, O95832]",3.55
